Measured values published in patent US20060257938A1, “Method of screening for drugs that block ligand binding to a lipid binding protein” (priority 2005, published 2006).
“And” between values parts separate entries of the source, which are not always exact repeats. Equal values may be shown once.

Columns and labels:
Format in all cases: binding
[1] = Probe fluorescence ratio response to stearic acid relative to ADIFAB2; conditions: response relative to ADIFAB2
Description: (§1) In an alternate preferred embodiment, the protein is rI-FABP that has Ala substituted for Leu at position 72 (rI-FABP-L72A) with the resulting probe named ADIFAB2. […] Other probes useful in embodiments of the invention are shown in Tables 1-6 and are also described in U.S. application Ser. No. 11/085,792, filed Mar. 21, 2005 which is incorporated herein by reference. The indicated substitutions are with reference to the ADIFAB protein of SEQ ID NO: 2.
(§2) ADIFAB2 also has an altered spectral response, making it especially useful for measurements of FFAu in blood samples (Apple et al, Clinical Proteomics, (2004) 1:41-44, U.S. patent application Ser. No. 10/670,958). The wavelengths at the maximum intensities emitted by these fluorescently-labeled I-FABP's in the absence of FFA is about 420 to 480 nm. The emission wavelengths at the maximum intensities emitted by these fluorescently-labeled I-FABP's with FFA bound are between about 495 to 580 nm. Experiments typically involve measuring the fluorescence response within both emission maxima or at wavelengths for which the effect of interfering molecules such as hemoglobin can be eliminated as described in U.S. application Ser. No. 10/670958 and PCT/US2004/030521 and the calculation of the ratio ‘R’ of the two fluorescence intensities. The baseline value for this ratio, measured in the absence of analyte, is designated R0.
(§3) The intensity ratio (“R” value) is determined as follows. The ratio is calculated using the following formula: R=Fλ1/Fλ2 wherein, Fλ1 is the measured fluorescence intensities (intensity of sample with probe present minus intensity of sample without probe present) at wavelength 1 and Fλ2 is the measured fluorescence intensities (intensity of sample with probe present minus intensity of sample without probe present) at wavelength 2. Then, for a given probe, ΔR, the difference in R value between the measurement in the presence of the test compound (agent) and in the absence of the test compound (agent), is calculated as follows: ΔR=R+agent−R0 In some embodiments, the ΔR value may then be compared to some reference, for example, an agent with a known affinity for a given probe, by ΔR/ΔRreference. Measurements of fluorescence intensities are obtained using standard techniques.

[2] = Probe fluorescence ratio response to palmitoleic acid relative to ADIFAB2; conditions: response relative to ADIFAB2
Description: as §1, §2, §3

[3] = Probe fluorescence ratio response to arachidonic acid relative to ADIFAB2; conditions: for DR/DR AA: arachidonic acid, response relative to ADIFAB2; for ΔR/DRAΔ2 AA: Table 4, Arachidonic acid
Method in brief: (§4)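 Fluorescently labeled rat intestinal FABP variants were read at two emission wavelengths, near the unbound maximum (about 420 to 480 nm) and the FFA-bound maximum (about 495 to 580 nm). R = Fλ1/Fλ2 after subtracting probe-free intensity; ΔR = R+agent − R0, normalized to ADIFAB2 (rI-FABP-L72A).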

[4] = Probe fluorescence ratio response to palmitic acid relative to ADIFAB2; conditions: for DR/DR PA: response relative to ADIFAB2; for ΔR/DRAΔ2 PA: Table 4
Method in brief: as §4

[5] = Probe fluorescence ratio response to linolenic acid relative to ADIFAB2; conditions: for DR/DR LNA: response relative to ADIFAB2; for ΔR/DRAΔ2 LNA: Table 4
Method in brief: as §4

[6] = Probe fluorescence ratio response to linoleic acid relative to ADIFAB2; conditions: for DR/DR LA: response relative to ADIFAB2; for ΔR/DRAΔ2 LA: Table 4
Method in brief: as §4

[7] = Probe fluorescence ratio response to oleic acid relative to ADIFAB2; conditions: for DR/DR OA: response relative to ADIFAB2; for ΔR/DRAΔ2 OA: Table 4
Method in brief: as §4

Row | Molecule | DR/DR SA [1] | DR/DR POA [2] | DR/DR AA [3] | DR/DR PA [4] | DR/DR LNA [5] | DR/DR LA [6] | DR/DR OA [7] | ΔR/DRAΔ2 AA [3] | ΔR/DRAΔ2 PA [4] | ΔR/DRAΔ2 LNA [5] | ΔR/DRAΔ2 LA [6] | ΔR/DRAΔ2 OA [7]
1 | 38Y 74F 72A (protein, listed as Rattus norvegicus, PEPTIDE (1)...(131) wild-type rat intestinal fatty acid binding protein) AFDGTWKVDRNENYEKFMEKMGINVVKRKLGAHDNLKYTITQEGNKFTVKESSNFRNIDVVFELGVDFAYSAAFGTELTGTWTMEGNKLVGKFKRVDNGKELIAVREISGNELIQTYTYEGVEAKRIFKKE | 0.362 | 1.514 | 0.605 | 1.397 | 1.166 | 0.926 | 0.646 | – | – | – | – | –
2 | 73W 74I (protein, listed as Rattus norvegicus, PEPTIDE (1)...(131) wild-type rat intestinal fatty acid binding protein) AFDGTWKVDRNENYEKFMEKMGINVVKRKLGAHDNLKLTITQEGNKFTVKESSNFRNIDVVFELGVDFAYSLWIGTELTGTWTMEGNKLVGKFKRVDNGKELIAVREISGNELIQTYTYEGVEAKRIFKKE | 0.423 | 2.697 | 0.757 | 1.884 | 1.325 | 1.130 | 0.912 | – | – | – | – | –
3 | L1P7H4: FABP probe, substitutions Y14I L38M L72W vs SEQ ID NO: 2 (protein, listed as Rattus norvegicus, PEPTIDE (1)...(131) wild-type rat intestinal fatty acid binding protein) AFDGTWKVDRNENIEKFMEKMGINVVKRKLGAHDNLKMTITQEGNKFTVKESSNFRNIDVVFELGVDFAYSWADGTELTGTWTMEGNKLVGKFKRVDNGKELIAVREISGNELIQTYTYEGVEAKRIFKKE | – | – | – | – | – | – | – | −1.0 | −0.6 | −1.1 | −1.3 | −1.4
4 | L1P17A1: FABP probe, substitutions Y14I L72W vs SEQ ID NO: 2 (protein, listed as Rattus norvegicus, PEPTIDE (1)...(131) wild-type rat intestinal fatty acid binding protein) AFDGTWKVDRNENIEKFMEKMGINVVKRKLGAHDNLKLTITQEGNKFTVKESSNFRNIDVVFELGVDFAYSWADGTELTGTWTMEGNKLVGKFKRVDNGKELIAVREISGNELIQTYTYEGVEAKRIFKKE | – | – | – | – | – | – | – | −0.8 | −0.4 | −0.9 | −1.0 | −1.2
5 | L1P8D4: FABP probe, substitutions Y14M L72M Y117A vs SEQ ID NO: 2 (protein, listed as Rattus norvegicus, PEPTIDE (1)...(131) wild-type rat intestinal fatty acid binding protein) AFDGTWKVDRNENMEKFMEKMGINVVKRKLGAHDNLKLTITQEGNKFTVKESSNFRNIDVVFELGVDFAYSMADGTELTGTWTMEGNKLVGKFKRVDNGKELIAVREISGNELIQTATYEGVEAKRIFKKE | – | – | – | – | – | – | – | 1.6 | 0.9 | 2.0 | 2.0 | 1.1
6 | L1P16G10: FABP probe, substitutions Y14W L72M Y117A vs SEQ ID NO: 2 (protein, listed as Rattus norvegicus, PEPTIDE (1)...(131) wild-type rat intestinal fatty acid binding protein) AFDGTWKVDRNENWEKFMEKMGINVVKRKLGAHDNLKLTITQEGNKFTVKESSNFRNIDVVFELGVDFAYSMADGTELTGTWTMEGNKLVGKFKRVDNGKELIAVREISGNELIQTATYEGVEAKRIFKKE | – | – | – | – | – | – | – | 0.9 | 0.8 | 1.3 | 1.1 | 0.7
7 | L1P9G10: FABP probe, substitutions L38I L72G vs SEQ ID NO: 2 (protein, listed as Rattus norvegicus, PEPTIDE (1)...(131) wild-type rat intestinal fatty acid binding protein) AFDGTWKVDRNENYEKFMEKMGINVVKRKLGAHDNLKITITQEGNKFTVKESSNFRNIDVVFELGVDFAYSGADGTELTGTWTMEGNKLVGKFKRVDNGKELIAVREISGNELIQTYTYEGVEAKRIFKKE | – | – | – | – | – | – | – | 1.0 | 0.4 | 0.7 | 0.8 | 0.9
8 | 18L 73V 72A (protein, listed as Rattus norvegicus, PEPTIDE (1)...(131) wild-type rat intestinal fatty acid binding protein) AFDGTWKVDRNENYEKFLEKMGINVVKRKLGAHDNLKLTITQEGNKFTVKESSNFRNIDVVFELGVDFAYSAVDGTELTGTWTMEGNKLVGKFKRVDNGKELIAVREISGNELIQTYTYEGVEAKRIFKKE | 0.359 and 0.427 | – | 0.615 and 0.475 | – | – | – | – | – | – | – | – | –
9 | L1P1C3: FABP probe, substitutions Y14M L72W vs SEQ ID NO: 2 (protein, listed as Rattus norvegicus, PEPTIDE (1)...(131) wild-type rat intestinal fatty acid binding protein) AFDGTWKVDRNENMEKFMEKMGINVVKRKLGAHDNLKLTITQEGNKFTVKESSNFRNIDVVFELGVDFAYSWADGTELTGTWTMEGNKLVGKFKRVDNGKELIAVREISGNELIQTYTYEGVEAKRIFKKE | – | – | – | – | – | – | – | −0.9 | −0.4 | −1.0 | −1.1 | −1.3
10 | L1P5A10: FABP probe, substitution Y117A vs SEQ ID NO: 2 (protein, listed as Rattus norvegicus, PEPTIDE (1)...(131) wild-type rat intestinal fatty acid binding protein) AFDGTWKVDRNENYEKFMEKMGINVVKRKLGAHDNLKLTITQEGNKFTVKESSNFRNIDVVFELGVDFAYSLADGTELTGTWTMEGNKLVGKFKRVDNGKELIAVREISGNELIQTATYEGVEAKRIFKKE | – | – | – | – | – | – | – | 1.5 | 0.4 | 0.7 | 1.2 | 1.1
11 | L1P8H2: FABP probe, substitutions Y14M L38M L72W vs SEQ ID NO: 2 (protein, listed as Rattus norvegicus, PEPTIDE (1)...(131) wild-type rat intestinal fatty acid binding protein) AFDGTWKVDRNENMEKFMEKMGINVVKRKLGAHDNLKMTITQEGNKFTVKESSNFRNIDVVFELGVDFAYSWADGTELTGTWTMEGNKLVGKFKRVDNGKELIAVREISGNELIQTYTYEGVEAKRIFKKE | – | – | – | – | – | – | – | −1.3 | −0.6 | −1.3 | −1.5 | −1.7
